According to paper PMC4915977 (Current biology : CB, 2016):

T1: HA-tagged Mst2, full-length (UniProt Q13188 1-491)
T1 sequence (looked up): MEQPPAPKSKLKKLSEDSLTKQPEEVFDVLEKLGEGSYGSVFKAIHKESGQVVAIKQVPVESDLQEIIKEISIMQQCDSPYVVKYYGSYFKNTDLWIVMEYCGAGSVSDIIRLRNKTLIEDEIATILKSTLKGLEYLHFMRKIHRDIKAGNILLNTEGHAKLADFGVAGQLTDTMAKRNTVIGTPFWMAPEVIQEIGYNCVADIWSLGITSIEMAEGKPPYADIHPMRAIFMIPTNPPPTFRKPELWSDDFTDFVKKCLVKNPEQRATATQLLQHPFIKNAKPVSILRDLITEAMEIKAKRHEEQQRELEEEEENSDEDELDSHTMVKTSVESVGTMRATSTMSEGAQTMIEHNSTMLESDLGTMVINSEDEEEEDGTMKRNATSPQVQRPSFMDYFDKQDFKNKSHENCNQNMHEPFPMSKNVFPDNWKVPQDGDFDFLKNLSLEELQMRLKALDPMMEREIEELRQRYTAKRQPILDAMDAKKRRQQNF


How the values were obtained:
[1] = target: Mst2 SARAH domain with a C-terminal Cys, AEDANS-labelled (UniProt Q13188); assay: FRET or BRET
[2] = target: Mst1 SARAH domain with a C-terminal Cys, AEDANS-labelled (UniProt Q13043); assay: FRET or BRET
[3] = target: T1, HA-tagged Mst2, full-length; assay: co-IP

Molecule	Kd [1]	other results
Mst1 SARAH domain with a C-terminal Cys, AEDANS-labelled (from UniProt Q13043 433-480) (domain or fragment)		Kd [2]: 6.5 µM
Myc-tagged Mst1, full-length (1-487) (natural protein, UniProt Q13043 1-487, looked up) METVQLRNPPRRQLKKLDEDSLTKQPEEVFDVLEKLGEGSYGSVYKAIHKETGQIVAIKQVPVESDLQEIIKEISIMQQCDSPHVVKYYGSYFKNTDLWIVMEYCGAGSVSDIIRLRNKTLTEDEIATILQSTLKGLEYLHFMRKIHRDIKAGNILLNTEGHAKLADFGVAGQLTDTMAKRNTVIGTPFWMAPEVIQEIGYNCVADIWSLGITAIEMAEGKPPYADIHPMRAIFMIPTNPPPTFRKPELWSDNFTDFVKQCLVKSPEQRATATQLLQHPFVRSAKGVSILRDLINEAMDVKLKRQESQQREVDQDDEENSEEDEMDSGTMVRAVGDEMGTVRVASTMTDGANTMIEHDDTLPSQLGTMVINAEDEEEEGTMKRRDETMQPAKPSFLEYFEQKEKENQINSFGKSVPGPLKNSSDWKIPQDGDYEFLKSWTVEDLQKRLLALDPMMEQEIEEIRQKYQSKRQPILDAIEAKKRRQQNF		level of heterodimers relative to homodimers [3]: ~60%

More lines, main results first:

Kd [1]	Molecule	other results
4.3 µM	Mst2-LW SARAH domain, unlabeled (from UniProt Q13188 437-484) (domain or fragment)	
0.72 µM	Mst1 SARAH domain, unlabeled (from UniProt Q13043 433-480) (domain or fragment)	
